Article PMC11021511 (Nature Communications, 2024)

Assays:
Experiment in all cases: affinity purification with mass spectrometry; ESK1 antibody cross-linked to Protein A/G beads as bait; lysate of primary human liver tissue (0.5% IGEPAL 630, 50 mM Tris pH 8.0, 150 mM NaCl), at least 5 h at 4 °C; washes with 150 mM NaCl, 450 mM NaCl and no salt; peptides eluted with 10% acetic acid, 5 kDa filter, LC-MS2; enrichment against the MAGE-A4 antibody as control; triplicates
Details in all cases: one partner purified
[1] = target: T1, HLA-A*02:01 in complex with peptide ILF2_(127-135) (…) (Homo sapiens, HLA-A*02:01)
T1 construct: HLA class I heavy chain, allele HLA-A*02:01, human; beta-2-microglobulin, human; The presenting allele is assigned by NetMHCpan 4.1 prediction (rank <= 2); source: peptide pulsed on T2 cells (JNFAT assay); copies: + +

[2] = target: T2, HLA-A*02:01 in complex with peptide SF3B4_(78-86) (…) (Homo sapiens, HLA-A*02:01)
T2 construct: HLA class I heavy chain, allele HLA-A*02:01, human; beta-2-microglobulin, human; Splicing factor 3B subunit 4, human, residues 78-86; The presenting allele is assigned by NetMHCpan 4.1 prediction (rank <= 2); source: peptide pulsed on T2 cells (JNFAT assay); copies: + +

[3] = target: T3, HLA-A*02:01 in complex with peptide USP9Y_(1674-1682) (…) (Homo sapiens, HLA-A*02:01)
T3 construct: HLA class I heavy chain, allele HLA-A*02:01, human; beta-2-microglobulin, human; The presenting allele is assigned by NetMHCpan 4.1 prediction (rank <= 2); source: peptide pulsed on T2 cells (JNFAT assay); copies: + +

[4] = target: T4, HLA-A*02:01 in complex with peptide RL5_(117-125) (…) (Homo sapiens, HLA-A*02:01)
T4 construct: HLA class I heavy chain, allele HLA-A*02:01, human; beta-2-microglobulin, human; The presenting allele is assigned by NetMHCpan 4.1 prediction (rank <= 2); source: peptide pulsed on T2 cells (JNFAT assay); copies: + +

[5] = target: T5, HLA-A*02:01 in complex with peptide HNRNPA1_(15-23) (…) (Homo sapiens, HLA-A*02:01)
T5 construct: HLA class I heavy chain, allele HLA-A*02:01, human; beta-2-microglobulin, human; Heterogeneous nuclear ribonucleoprotein A1, human, residues 15-23; The presenting allele is assigned by NetMHCpan 4.1 prediction (rank <= 2; printed rank 1.625); source: peptide pulsed on T2 cells (JNFAT assay); copies: + +

[6] = target: T6, HLA-A*02:01 in complex with peptide CRYL1_(130-138) (…) (Homo sapiens, HLA-A*02:01)
T6 construct: HLA class I heavy chain, allele HLA-A*02:01, human; beta-2-microglobulin, human; The presenting allele is assigned by NetMHCpan 4.1 prediction (rank <= 2); source: peptide pulsed on T2 cells (JNFAT assay); copies: + +

[7] = target: T7, HLA-A*02:01 in complex with peptide CYP2C8_(59-67) (…) (Homo sapiens, HLA-A*02:01)
T7 construct: HLA class I heavy chain, allele HLA-A*02:01, human; beta-2-microglobulin, human; Cytochrome P450 2C8, human, residues 59-67; The presenting allele is assigned by NetMHCpan 4.1 prediction (rank <= 2); source: peptide pulsed on T2 cells (JNFAT assay); copies: + +

[8] = target: T8, HLA-A*02:01 in complex with peptide RBM4B_(59-67) (…) (Homo sapiens, HLA-A*02:01)
T8 construct: HLA class I heavy chain, allele HLA-A*02:01, human; beta-2-microglobulin, human; The presenting allele is assigned by NetMHCpan 4.1 prediction (rank <= 2); also called RMB4B_(59-67); source: peptide pulsed on T2 cells (JNFAT assay); copies: + +

[9] = target: T9, HLA-A*02:01 in complex with peptide SET_(150-158) (…) (Homo sapiens, HLA-A*02:01)
T9 construct: HLA class I heavy chain, allele HLA-A*02:01, human; beta-2-microglobulin, human; The presenting allele is assigned by NetMHCpan 4.1 prediction (rank <= 2); source: peptide pulsed on T2 cells (JNFAT assay); copies: + +

[10] = target: T10, HLA-A*02:01 in complex with peptide ARHGEF26_(863-871) (…) (Homo sapiens, HLA-A*02:01)
T10 construct: HLA class I heavy chain, allele HLA-A*02:01, human; beta-2-microglobulin, human; The presenting allele is assigned by NetMHCpan 4.1 prediction (rank <= 2); source: peptide pulsed on T2 cells (JNFAT assay); copies: + +

[11] = target: T11, HLA-A*02:01 in complex with peptide SHC1_(469-477) (…) (Homo sapiens, HLA-A*02:01)
T11 construct: HLA class I heavy chain, allele HLA-A*02:01, human; beta-2-microglobulin, human; The presenting allele is assigned by NetMHCpan 4.1 prediction (rank <= 2); source: peptide pulsed on T2 cells (JNFAT assay); copies: + +

[12] = target: T12, HLA-A*02:01 in complex with peptide PLG_(92-100) (…) (Homo sapiens, HLA-A*02:01)
T12 construct: HLA class I heavy chain, allele HLA-A*02:01, human; beta-2-microglobulin, human; Plasminogen, human, residues 92-100; The presenting allele is assigned by NetMHCpan 4.1 prediction (rank <= 2); source: peptide pulsed on T2 cells (JNFAT assay); copies: + +

[13] = target: T13, HLA-A*02:01 in complex with peptide ALDOA_(216-224) (…) (Homo sapiens, HLA-A*02:01)
T13 construct: HLA class I heavy chain, allele HLA-A*02:01, human; beta-2-microglobulin, human; The presenting allele is assigned by NetMHCpan 4.1 prediction (rank <= 2); source: peptide pulsed on T2 cells (JNFAT assay); copies: + +

[14] = target: T14, HLA-A*02:01 in complex with peptide MSMO1_(164-172) (…) (Homo sapiens, HLA-A*02:01)
T14 construct: HLA class I heavy chain, allele HLA-A*02:01, human; beta-2-microglobulin, human; The presenting allele is assigned by NetMHCpan 4.1 prediction (rank <= 2); source: peptide pulsed on T2 cells (JNFAT assay); copies: + +

[15] = target: T15, HLA-A*02:01 in complex with peptide MAF_(116-124) (…) (Homo sapiens, HLA-A*02:01)
T15 construct: HLA class I heavy chain, allele HLA-A*02:01, human; beta-2-microglobulin, human; The presenting allele is assigned by NetMHCpan 4.1 prediction (rank <= 2); source: peptide pulsed on T2 cells (JNFAT assay); copies: + +

Measured: binding result

B1: ESK1 antibody (antibody, V domains shown)
VH: QMQLVQSGAEVKEPGESLRISCKGSGYSFTNFWISWVRQMPGKGLEWMGRVDPGYSYSTYSPSFQGHVTISADKSTSTAYLQWNSLKASDTAMYYCARVQYSGYYDWFDPWGQGTLVTVSS
VL: not shown
notes: the constant region of the bait antibody is not described for ESK1
binds: all assays above
